In article PMC2661965:

T1: V2-Trap-80, Q8VCD5
T1 chain: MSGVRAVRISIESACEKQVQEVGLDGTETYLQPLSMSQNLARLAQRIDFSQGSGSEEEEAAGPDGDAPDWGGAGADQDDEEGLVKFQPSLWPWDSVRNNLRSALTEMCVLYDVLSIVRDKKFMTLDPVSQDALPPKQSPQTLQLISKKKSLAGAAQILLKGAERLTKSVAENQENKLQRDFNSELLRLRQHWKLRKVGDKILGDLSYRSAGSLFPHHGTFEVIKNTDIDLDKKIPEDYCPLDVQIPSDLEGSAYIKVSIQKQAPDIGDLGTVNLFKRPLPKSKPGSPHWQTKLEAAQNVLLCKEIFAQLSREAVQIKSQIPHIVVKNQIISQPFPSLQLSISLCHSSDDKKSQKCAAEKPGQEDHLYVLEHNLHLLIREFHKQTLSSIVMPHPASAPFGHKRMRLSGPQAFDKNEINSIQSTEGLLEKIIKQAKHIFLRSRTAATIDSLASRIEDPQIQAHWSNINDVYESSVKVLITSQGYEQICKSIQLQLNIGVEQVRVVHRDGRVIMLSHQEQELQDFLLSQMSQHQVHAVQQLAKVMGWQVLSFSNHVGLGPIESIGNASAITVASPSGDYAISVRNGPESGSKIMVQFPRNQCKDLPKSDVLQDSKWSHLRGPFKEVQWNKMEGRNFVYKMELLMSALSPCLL

T2: p65-V2, Q04207
T2 chain: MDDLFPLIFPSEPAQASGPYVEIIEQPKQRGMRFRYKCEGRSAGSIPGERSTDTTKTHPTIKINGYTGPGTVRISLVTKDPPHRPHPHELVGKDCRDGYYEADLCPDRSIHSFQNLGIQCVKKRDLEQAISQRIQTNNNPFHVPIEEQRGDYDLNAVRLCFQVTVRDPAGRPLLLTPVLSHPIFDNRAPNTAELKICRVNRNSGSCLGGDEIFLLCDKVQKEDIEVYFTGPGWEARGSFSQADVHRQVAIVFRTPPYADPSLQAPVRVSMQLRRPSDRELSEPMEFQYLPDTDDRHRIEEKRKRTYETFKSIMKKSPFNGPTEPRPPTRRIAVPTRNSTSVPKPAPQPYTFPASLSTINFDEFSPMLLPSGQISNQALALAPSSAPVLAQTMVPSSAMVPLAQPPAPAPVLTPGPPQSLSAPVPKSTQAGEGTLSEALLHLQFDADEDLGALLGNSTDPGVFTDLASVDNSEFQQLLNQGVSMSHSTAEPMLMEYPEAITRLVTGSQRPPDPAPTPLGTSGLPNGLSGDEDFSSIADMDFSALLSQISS


Columns and labels:
Assay in all cases: BiFC
V2-Trap-80 = V2-Trap-80 (UniProt Q8VCD5); settings: HEK-293 cells, co-transfection; parent: est. 72; read off a plot
p65-V2 = p65-V2 (UniProt Q04207); settings: HEK-293 cells, co-transfection; parent: est. 740; read off a plot
V2-Trap-80, Q8VCD5 = biological target: T1, V2-Trap-80, Q8VCD5; settings: chain shown with the change; HEK-293 cells, co-transfection; parent: est. 72; read off a plot
p65-V2, Q04207 = biological target: T2, p65-V2, Q04207; settings: chain shown with the change; HEK-293 cells, co-transfection; parent: est. 740; read off a plot

Chain of p65ΔTA2 fused to Venus fragment 1 (Q04207 other isoform, or with tags, fused parts or gaps, stated change not applied): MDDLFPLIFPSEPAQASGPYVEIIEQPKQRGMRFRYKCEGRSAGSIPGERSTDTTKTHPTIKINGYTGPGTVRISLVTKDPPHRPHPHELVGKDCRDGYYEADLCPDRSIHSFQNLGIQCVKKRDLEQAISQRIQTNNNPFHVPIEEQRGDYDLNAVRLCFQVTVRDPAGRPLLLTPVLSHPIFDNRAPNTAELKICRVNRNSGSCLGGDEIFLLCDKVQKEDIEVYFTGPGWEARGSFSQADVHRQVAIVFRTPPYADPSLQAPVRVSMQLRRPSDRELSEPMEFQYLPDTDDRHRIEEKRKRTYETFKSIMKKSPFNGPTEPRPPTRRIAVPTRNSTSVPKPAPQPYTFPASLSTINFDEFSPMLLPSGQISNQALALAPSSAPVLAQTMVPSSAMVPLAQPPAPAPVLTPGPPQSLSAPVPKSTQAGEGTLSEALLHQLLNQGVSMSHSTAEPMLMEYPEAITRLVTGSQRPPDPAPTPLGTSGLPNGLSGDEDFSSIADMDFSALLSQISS

Molecule | response (V2-Trap-80) | response (p65-V2) | response (V2-Trap-80, Q8VCD5) | response (p65-V2, Q04207)
p65ΔTA2 fused to Venus fragment 1 (from UniProt Q04207) TA1 mut528-534 | 40 % wt p65 | 550 % wt p65 |  | 
p65ΔTA2 fused to Venus fragment 1 (from UniProt Q04207) TA1 mut535-541 | 38 % wt p65 | 640 % wt p65 |  | 
p65ΔTA2 fused to Venus fragment 1, Q04207 D539A; F540A (protein) MDDLFPLIFPSEPAQASGPYVEIIEQPKQRGMRFRYKCEGRSAGSIPGERSTDTTKTHPTIKINGYTGPGTVRISLVTKDPPHRPHPHELVGKDCRDGYYEADLCPDRSIHSFQNLGIQCVKKRDLEQAISQRIQTNNNPFHVPIEEQRGDYDLNAVRLCFQVTVRDPAGRPLLLTPVLSHPIFDNRAPNTAELKICRVNRNSGSCLGGDEIFLLCDKVQKEDIEVYFTGPGWEARGSFSQADVHRQVAIVFRTPPYADPSLQAPVRVSMQLRRPSDRELSEPMEFQYLPDTDDRHRIEEKRKRTYETFKSIMKKSPFNGPTEPRPPTRRIAVPTRNSTSVPKPAPQPYTFPASLSTINFDEFSPMLLPSGQISNQALALAPSSAPVLAQTMVPSSAMVPLAQPPAPAPVLTPGPPQSLSAPVPKSTQAGEGTLSEALLHQLLNQGVSMSHSTAEPMLMEYPEAITRLVTGSQRPPDPAPTPLGTSGLPNGLSGDEDFSSIADMAASALLSQISS |  |  | 35 % wt p65 | 600 % wt p65
